From patent publication US20250076311A1 (Chugai, published 2025)

Tests used:
[1] = target: T1, soluble mouse FcγRII, His-tagged (mouse, UniProt P08101 30-210, limits assumed); assay: SPR, mouse FcγRII captured via His-tag, antigen-antibody complex injected, pH 7.4, 25 C
T1 construct: Captured on the chip through an anti-His antibody
T1 sequence (looked up): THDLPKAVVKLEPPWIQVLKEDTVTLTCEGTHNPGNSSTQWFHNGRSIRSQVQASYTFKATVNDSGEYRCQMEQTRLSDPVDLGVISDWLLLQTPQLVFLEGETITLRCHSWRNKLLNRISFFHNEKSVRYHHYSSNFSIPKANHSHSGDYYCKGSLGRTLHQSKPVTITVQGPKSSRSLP
How it was run: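 Biacore T200; His-tagged soluble FcγRII captured on an anti-His antibody chip, then antibody–antigen complexes injected. Running buffer 20 mM ACES, 150 mM NaCl, 1.2 mM CaCl₂, 0.05% Tween 20, pH 7.4; regeneration with 10 mM glycine-HCl pH 1.5; all at 25° C.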

[2] = target: T2, human FcγRIIb constitutively expressed on MDCK cells (human, UniProt P31994 43-310); assay: cell-based or functional assay
T2 sequence (looked up): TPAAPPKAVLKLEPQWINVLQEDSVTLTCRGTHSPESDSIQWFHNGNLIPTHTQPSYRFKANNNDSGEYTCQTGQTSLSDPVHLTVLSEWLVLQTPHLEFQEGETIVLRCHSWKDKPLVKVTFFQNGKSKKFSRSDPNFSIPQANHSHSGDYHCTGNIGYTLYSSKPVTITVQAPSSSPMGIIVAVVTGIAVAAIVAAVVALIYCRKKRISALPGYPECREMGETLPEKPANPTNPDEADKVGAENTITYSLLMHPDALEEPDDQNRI

Row | Binder | biacore IC binding (relative, SG1 = 1.00) [1] | celluar uptake (labelled human latent myostatin taken up as antigen-antibody complex) [2]
1 | M103205H795-P1544m/M103202L889-SK1 (antibody, human IgG1, kappa, name in EU numbering, copies: 2 + 2) heavy: QVTLKESGPVLVKPTETLTLTCTVSGIDLSHDDISWVRQAPGKGLEWVGIISYAGSTYYASWAKGRLTISKDTSKNQVVLTMTNMDPVDTATYYCARGVPAYSHGGDLWGQGTLVTVSSASTKGPSVFPLAPSSKSTSGGTAALGCLVKDYFPEPVTVSWNSGALTSGVHTFPAVLQSSGLYSLSSVVTVPSSSLGTQTYICNVNHKPSNTKVDKKVEPKSCDKTHTCPPCPAPELLGGPSVFLFPPKPKDTLMISRTPEVTCVVVDVSHEDPEVKFNWYVDGVEVHNAKTKPREEQYNSTYRVVSVLTVLHRDWLNGKEYKCKVSNKALPAPIEKTISKAKGQPREPQVYTLPPSREEMTKNQVSLTCLVKGFYPSDIAVEWESNGQPENNYKTTPPVLDSRGSFFLYSKLTVKKSRWQQGNVFSCSVMHEALHNHYTQKSLSLSP light: DIVMTQSPATLSLSPGERATLSCTSSQSVYHANWLSWFQQKPGQPPKLLIYWASTLAYGVPSRFSGSGSGTDFTLTISSLQPEDAATYYCAGGYGGGRYAFGQGTKVEIKRTVAAPSVFIFPPSDEQLKSGTASVVCLLNNFYPREAKVQWKVDNALQSGNSQESVTEQDSKDSTYSLSSTLTLSKADYEKHKVYACEVTHQGLSSPVTKSFNRGEC | 2.04 relative to SG1 | 7.66 relative to SG1 = 1.00
2 | M103205H795-P1550m/M103202L889-SK1 (antibody, human IgG1, kappa, name in EU numbering, copies: 2 + 2) heavy: QVTLKESGPVLVKPTETLTLTCTVSGIDLSHDDISWVRQAPGKGLEWVGIISYAGSTYYASWAKGRLTISKDTSKNQVVLTMTNMDPVDTATYYCARGVPAYSHGGDLWGQGTLVTVSSASTKGPSVFPLAPSSKSTSGGTAALGCLVKDYFPEPVTVSWNSGALTSGVHTFPAVLQSSGLYSLSSVVTVPSSSLGTQTYICNVNHKPSNTKVDKKVEPKSCDKTHTCPPCPAPELLGGPSVFLFPPKPKDTLMISRTPEVTCVVVDVSHEDPEVKFNWYVDGVEVHNAKTKPREEQYNSTYRVVSVLTVLHRDWLNGKEYKCKVSNKALPAPIEKTISKAKGQPREPQVYTLPPSREEMTKNQVSLTCLVKGFYPSDIAVEWESNGQPRNNYKTTPPVLDSRGSFFLYSKLTVDKSRWQQGNVFSCSVMHEALHNHYTQKSLSLSP light: DIVMTQSPATLSLSPGERATLSCTSSQSVYHANWLSWFQQKPGQPPKLLIYWASTLAYGVPSRFSGSGSGTDFTLTISSLQPEDAATYYCAGGYGGGRYAFGQGTKVEIKRTVAAPSVFIFPPSDEQLKSGTASVVCLLNNFYPREAKVQWKVDNALQSGNSQESVTEQDSKDSTYSLSSTLTLSKADYEKHKVYACEVTHQGLSSPVTKSFNRGEC | 1.63 relative to SG1 | 6.43 relative to SG1 = 1.00
3 | M103205H795-P1548m/M103202L889-SK1 (antibody, human IgG1, kappa, name in EU numbering, copies: 2 + 2) heavy: QVTLKESGPVLVKPTETLTLTCTVSGIDLSHDDISWVRQAPGKGLEWVGIISYAGSTYYASWAKGRLTISKDTSKNQVVLTMTNMDPVDTATYYCARGVPAYSHGGDLWGQGTLVTVSSASTKGPSVFPLAPSSKSTSGGTAALGCLVKDYFPEPVTVSWNSGALTSGVHTFPAVLQSSGLYSLSSVVTVPSSSLGTQTYICNVNHKPSNTKVDKKVEPKSCDKTHTCPPCPAPELLGGPSVFLFPPKPKDTLMISRTPEVTCVVVDVSHEDPEVKFNWYVDGVEVHNAKTKPREEQYNSTYRVVSVLTVLHRDWLNGKEYKCKVSNKALPAPIEKTISKAKGQPREPQVYTLPPSREEMTKNQVSLTCLVKGFYPSDIAVEWESNRQPENNYKTTPPVLDSRGSFFLYSKLTVDKSRWQQGNVFSCSVMHEALHNHYTQKSLSLSP light: DIVMTQSPATLSLSPGERATLSCTSSQSVYHANWLSWFQQKPGQPPKLLIYWASTLAYGVPSRFSGSGSGTDFTLTISSLQPEDAATYYCAGGYGGGRYAFGQGTKVEIKRTVAAPSVFIFPPSDEQLKSGTASVVCLLNNFYPREAKVQWKVDNALQSGNSQESVTEQDSKDSTYSLSSTLTLSKADYEKHKVYACEVTHQGLSSPVTKSFNRGEC | 1.37 relative to SG1 | 2.3 relative to SG1 = 1.00
4 | M103205H795-P1549m/M103202L889-SK1 (antibody, human IgG1, kappa, name in EU numbering, copies: 2 + 2) heavy: QVTLKESGPVLVKPTETLTLTCTVSGIDLSHDDISWVRQAPGKGLEWVGIISYAGSTYYASWAKGRLTISKDTSKNQVVLTMTNMDPVDTATYYCARGVPAYSHGGDLWGQGTLVTVSSASTKGPSVFPLAPSSKSTSGGTAALGCLVKDYFPEPVTVSWNSGALTSGVHTFPAVLQSSGLYSLSSVVTVPSSSLGTQTYICNVNHKPSNTKVDKKVEPKSCDKTHTCPPCPAPELLGGPSVFLFPPKPKDTLMISRTPEVTCVVVDVSHEDPEVKFNWYVDGVEVHNAKTKPREEQYNSTYRVVSVLTVLHRDWLNGKEYKCKVSNKALPAPIEKTISKAKGQPREPQVYTLPPSREEMTKNQVSLTCLVKGFYPSDIAVEWESNRQPENNYKTTPPVLDSDRSFFLYSKLTVDKSRWQQGNVFSCSVMHEALHNHYTQKSLSLSP light: DIVMTQSPATLSLSPGERATLSCTSSQSVYHANWLSWFQQKPGQPPKLLIYWASTLAYGVPSRFSGSGSGTDFTLTISSLQPEDAATYYCAGGYGGGRYAFGQGTKVEIKRTVAAPSVFIFPPSDEQLKSGTASVVCLLNNFYPREAKVQWKVDNALQSGNSQESVTEQDSKDSTYSLSSTLTLSKADYEKHKVYACEVTHQGLSSPVTKSFNRGEC | 1.22 relative to SG1 | 2.03 relative to SG1 = 1.00
5 | M103205H795-P1546m/M103202L889-SK1 (antibody, human IgG1, kappa, name in EU numbering, copies: 2 + 2) heavy: QVTLKESGPVLVKPTETLTLTCTVSGIDLSHDDISWVRQAPGKGLEWVGIISYAGSTYYASWAKGRLTISKDTSKNQVVLTMTNMDPVDTATYYCARGVPAYSHGGDLWGQGTLVTVSSASTKGPSVFPLAPSSKSTSGGTAALGCLVKDYFPEPVTVSWNSGALTSGVHTFPAVLQSSGLYSLSSVVTVPSSSLGTQTYICNVNHKPSNTKVDKKVEPKSCDKTHTCPPCPAPELLGGPSVFLFPPKPKDTLMISRTPEVTCVVVDVSHEDPEVKFNWYVDGVEVHNAKTKPREEQYNSTYRVVSVLTVLHRDWLNGKEYKCKVSNKALPAPIEKTISKAKGQPREPQVYTLPPSREEMTKNQVSLTCLVKGFYPSDIAVEWESNGQPENNYKTTPPVLDSDRSFFLYSKLTVKKSRWQQGNVFSCSVMHEALHNHYTQKSLSLSP light: DIVMTQSPATLSLSPGERATLSCTSSQSVYHANWLSWFQQKPGQPPKLLIYWASTLAYGVPSRFSGSGSGTDFTLTISSLQPEDAATYYCAGGYGGGRYAFGQGTKVEIKRTVAAPSVFIFPPSDEQLKSGTASVVCLLNNFYPREAKVQWKVDNALQSGNSQESVTEQDSKDSTYSLSSTLTLSKADYEKHKVYACEVTHQGLSSPVTKSFNRGEC | 1.41 relative to SG1 | 5.1 relative to SG1 = 1.00
6 | M103205H795-P1547m/M103202L889-SK1 (antibody, human IgG1, kappa, name in EU numbering, copies: 2 + 2) heavy: QVTLKESGPVLVKPTETLTLTCTVSGIDLSHDDISWVRQAPGKGLEWVGIISYAGSTYYASWAKGRLTISKDTSKNQVVLTMTNMDPVDTATYYCARGVPAYSHGGDLWGQGTLVTVSSASTKGPSVFPLAPSSKSTSGGTAALGCLVKDYFPEPVTVSWNSGALTSGVHTFPAVLQSSGLYSLSSVVTVPSSSLGTQTYICNVNHKPSNTKVDKKVEPKSCDKTHTCPPCPAPELLGGPSVFLFPPKPKDTLMISRTPEVTCVVVDVSHEDPEVKFNWYVDGVEVHNAKTKPREEQYNSTYRVVSVLTVLHRDWLNGKEYKCKVSNKALPAPIEKTISKAKGQPREPQVYTLPPSREEMTKNQVSLTCLVKGFYPSDIAVEWESNGQPENNYKTTPPVLDSDKSFFLYSKLTVKKSRWQQGNVFSCSVMHEALHNHYTQKSLSLSP light: DIVMTQSPATLSLSPGERATLSCTSSQSVYHANWLSWFQQKPGQPPKLLIYWASTLAYGVPSRFSGSGSGTDFTLTISSLQPEDAATYYCAGGYGGGRYAFGQGTKVEIKRTVAAPSVFIFPPSDEQLKSGTASVVCLLNNFYPREAKVQWKVDNALQSGNSQESVTEQDSKDSTYSLSSTLTLSKADYEKHKVYACEVTHQGLSSPVTKSFNRGEC | 1.33 relative to SG1 | 4.85 relative to SG1 = 1.00
7 | M103205H795-P1545m/M103202L889-SK1 (antibody, human IgG1, kappa, name in EU numbering, copies: 2 + 2) heavy: QVTLKESGPVLVKPTETLTLTCTVSGIDLSHDDISWVRQAPGKGLEWVGIISYAGSTYYASWAKGRLTISKDTSKNQVVLTMTNMDPVDTATYYCARGVPAYSHGGDLWGQGTLVTVSSASTKGPSVFPLAPSSKSTSGGTAALGCLVKDYFPEPVTVSWNSGALTSGVHTFPAVLQSSGLYSLSSVVTVPSSSLGTQTYICNVNHKPSNTKVDKKVEPKSCDKTHTCPPCPAPELLGGPSVFLFPPKPKDTLMISRTPEVTCVVVDVSHEDPEVKFNWYVDGVEVHNAKTKPREEQYNSTYRVVSVLTVLHRDWLNGKEYKCKVSNKALPAPIEKTISKAKGQPREPQVYTLPPSREEMTKNQVSLTCLVKGFYPSDIAVEWESNGQPENNYKTTPPVLDSKGSFFLYSKLTVKKSRWQQGNVFSCSVMHEALHNHYTQKSLSLSP light: DIVMTQSPATLSLSPGERATLSCTSSQSVYHANWLSWFQQKPGQPPKLLIYWASTLAYGVPSRFSGSGSGTDFTLTISSLQPEDAATYYCAGGYGGGRYAFGQGTKVEIKRTVAAPSVFIFPPSDEQLKSGTASVVCLLNNFYPREAKVQWKVDNALQSGNSQESVTEQDSKDSTYSLSSTLTLSKADYEKHKVYACEVTHQGLSSPVTKSFNRGEC | 1.8 relative to SG1 | 7.73 relative to SG1 = 1.00
